Data: patent US20240132485A1, “HETEROCYCLIC CULLIN RING UBIQUITIN LIGASE COMPOUNDS AND USES THEREOF” (CEMM - FORSCHUNGSZENTRUM FÜR MOLEKULARE MEDIZIN GMBH, priority 2020, published 2024)

Legend:
[1] = molecular target: Nanoluc_DDB1 (N-terminal Nanoluc luciferase, G4S linker, DDB1 (FL)) (UniProt Q16531); test: NanoBRET in HEK293T cells, 10 µM compound Example 3-30; class C = 2-3 fold increase
[2] = molecular target: Nanoluc_DDB1 (N-terminal Nanoluc luciferase, G4S linker, DDB1 (FL)) (UniProt Q16531); test: NanoBRET in HEK293T cells, 10 µM compound Example 3-36; class C = 2-3 fold increase
[3] = molecular target: Nanoluc_DDB1 (N-terminal Nanoluc luciferase, G4S linker, DDB1 (FL)) (UniProt Q16531); test: NanoBRET in HEK293T cells, 10-point titration of compound Example 3-4; class A = EC50<=0.25 µM
[4] = molecular target: Nanoluc_DDB1 (N-terminal Nanoluc luciferase, G4S linker, DDB1 (FL)) (UniProt Q16531); test: NanoBRET in HEK293T cells, 10-point titration of compound Example 3-50; class A = EC50<=0.25 µM
[5] = molecular target: Nanoluc_DDB1 (N-terminal Nanoluc luciferase, G4S linker, DDB1 (FL)) (UniProt Q16531); test: NanoBRET in HEK293T cells, 10 µM compound Example 3-6; class C = 2-3 fold increase
[6] = molecular target: Nanoluc_DDB1 (N-terminal Nanoluc luciferase, G4S linker, DDB1 (FL)) (UniProt Q16531); test: NanoBRET in HEK293T cells, 10 µM compound Example 3-39; class B = 3-4 fold increase
[7] = molecular target: Nanoluc_DDB1 (N-terminal Nanoluc luciferase, G4S linker, DDB1 (FL)) (UniProt Q16531); test: NanoBRET in HEK293T cells, 10 µM compound Example 3-20; class C = 2-3 fold increase
[8] = molecular target: Nanoluc_DDB1 (N-terminal Nanoluc luciferase, G4S linker, DDB1 (FL)) (UniProt Q16531); test: NanoBRET in HEK293T cells, 10 µM compound Example 3-38; class B = 3-4 fold increase
[9] = molecular target: Nanoluc_DDB1 (N-terminal Nanoluc luciferase, G4S linker, DDB1 (FL)) (UniProt Q16531); test: NanoBRET in HEK293T cells, 10-point titration of compound Example 3-43; class A = EC50<=0.25 µM
[10] = molecular target: Nanoluc_DDB1 (N-terminal Nanoluc luciferase, G4S linker, DDB1 (FL)) (UniProt Q16531); test: NanoBRET in HEK293T cells, 10 µM compound Example 3-66; class A = greater than 4-fold increase
[11] = molecular target: Nanoluc_DDB1 (N-terminal Nanoluc luciferase, G4S linker, DDB1 (FL)) (UniProt Q16531); test: NanoBRET in HEK293T cells, 10 µM compound Example 3-29; class B = 3-4 fold increase
[12] = molecular target: Nanoluc_DDB1 (N-terminal Nanoluc luciferase, G4S linker, DDB1 (FL)) (UniProt Q16531); test: NanoBRET in HEK293T cells, 10 µM compound Example 3-10; class C = 2-3 fold increase
[13] = molecular target: Nanoluc_DDB1 (N-terminal Nanoluc luciferase, G4S linker, DDB1 (FL)) (UniProt Q16531); test: NanoBRET in HEK293T cells, 10 µM compound Example 3-52; class A = greater than 4-fold increase
[14] = molecular target: Nanoluc_DDB1 (N-terminal Nanoluc luciferase, G4S linker, DDB1 (FL)) (UniProt Q16531); test: NanoBRET in HEK293T cells, 10 µM compound Example 3-5; class B = 3-4 fold increase
[15] = molecular target: Nanoluc_DDB1 (N-terminal Nanoluc luciferase, G4S linker, DDB1 (FL)) (UniProt Q16531); test: NanoBRET in HEK293T cells, 10 µM compound Example 3-28; class B = 3-4 fold increase
[16] = molecular target: Nanoluc_DDB1 (N-terminal Nanoluc luciferase, G4S linker, DDB1 (FL)) (UniProt Q16531); test: NanoBRET in HEK293T cells, 10 µM compound Example 3-2; class B = 3-4 fold increase
[17] = molecular target: Nanoluc_DDB1 (N-terminal Nanoluc luciferase, G4S linker, DDB1 (FL)) (UniProt Q16531); test: NanoBRET in HEK293T cells, 10 µM compound Example 3-37; class C = 2-3 fold increase
[18] = molecular target: Nanoluc_DDB1 (N-terminal Nanoluc luciferase, G4S linker, DDB1 (FL)) (UniProt Q16531); test: NanoBRET in HEK293T cells, 10 µM compound Example 3-21; class B = 3-4 fold increase
[19] = molecular target: Nanoluc_DDB1 (N-terminal Nanoluc luciferase, G4S linker, DDB1 (FL)) (UniProt Q16531); test: NanoBRET in HEK293T cells, 10 µM compound Example 3-11; class A = greater than 4-fold increase
[20] = molecular target: Nanoluc_DDB1 (N-terminal Nanoluc luciferase, G4S linker, DDB1 (FL)) (UniProt Q16531); test: NanoBRET in HEK293T cells, 10 µM compound Example 3-56; class C = 2-3 fold increase
[21] = molecular target: Nanoluc_DDB1 (N-terminal Nanoluc luciferase, G4S linker, DDB1 (FL)) (UniProt Q16531); test: NanoBRET in HEK293T cells, 10-point titration of compound Example 3-52; class A = EC50<=0.25 µM
[22] = molecular target: Nanoluc_DDB1 (N-terminal Nanoluc luciferase, G4S linker, DDB1 (FL)) (UniProt Q16531); test: NanoBRET in HEK293T cells, 10-point titration of compound Example 3-9; class A = EC50<=0.25 µM
[23] = molecular target: Nanoluc_DDB1 (N-terminal Nanoluc luciferase, G4S linker, DDB1 (FL)) (UniProt Q16531); test: NanoBRET in HEK293T cells, 10 µM compound Example 3-41; class C = 2-3 fold increase
[24] = molecular target: Nanoluc_DDB1 (N-terminal Nanoluc luciferase, G4S linker, DDB1 (FL)) (UniProt Q16531); test: NanoBRET in HEK293T cells, 10 µM compound Example 3-53; class B = 3-4 fold increase
[25] = molecular target: Nanoluc_DDB1 (N-terminal Nanoluc luciferase, G4S linker, DDB1 (FL)) (UniProt Q16531); test: NanoBRET in HEK293T cells, 10 µM compound Example 3-43; class A = greater than 4-fold increase
[26] = molecular target: Nanoluc_DDB1 (N-terminal Nanoluc luciferase, G4S linker, DDB1 (FL)) (UniProt Q16531); test: NanoBRET in HEK293T cells, 10 µM compound Example 3-1; class B = 3-4 fold increase

Nanoluc_DDB1 (N-terminal Nanoluc luciferase, G4S linker, DDB1 (FL)), sequence (Q16531 other isoform, or with tags, fused parts or gaps): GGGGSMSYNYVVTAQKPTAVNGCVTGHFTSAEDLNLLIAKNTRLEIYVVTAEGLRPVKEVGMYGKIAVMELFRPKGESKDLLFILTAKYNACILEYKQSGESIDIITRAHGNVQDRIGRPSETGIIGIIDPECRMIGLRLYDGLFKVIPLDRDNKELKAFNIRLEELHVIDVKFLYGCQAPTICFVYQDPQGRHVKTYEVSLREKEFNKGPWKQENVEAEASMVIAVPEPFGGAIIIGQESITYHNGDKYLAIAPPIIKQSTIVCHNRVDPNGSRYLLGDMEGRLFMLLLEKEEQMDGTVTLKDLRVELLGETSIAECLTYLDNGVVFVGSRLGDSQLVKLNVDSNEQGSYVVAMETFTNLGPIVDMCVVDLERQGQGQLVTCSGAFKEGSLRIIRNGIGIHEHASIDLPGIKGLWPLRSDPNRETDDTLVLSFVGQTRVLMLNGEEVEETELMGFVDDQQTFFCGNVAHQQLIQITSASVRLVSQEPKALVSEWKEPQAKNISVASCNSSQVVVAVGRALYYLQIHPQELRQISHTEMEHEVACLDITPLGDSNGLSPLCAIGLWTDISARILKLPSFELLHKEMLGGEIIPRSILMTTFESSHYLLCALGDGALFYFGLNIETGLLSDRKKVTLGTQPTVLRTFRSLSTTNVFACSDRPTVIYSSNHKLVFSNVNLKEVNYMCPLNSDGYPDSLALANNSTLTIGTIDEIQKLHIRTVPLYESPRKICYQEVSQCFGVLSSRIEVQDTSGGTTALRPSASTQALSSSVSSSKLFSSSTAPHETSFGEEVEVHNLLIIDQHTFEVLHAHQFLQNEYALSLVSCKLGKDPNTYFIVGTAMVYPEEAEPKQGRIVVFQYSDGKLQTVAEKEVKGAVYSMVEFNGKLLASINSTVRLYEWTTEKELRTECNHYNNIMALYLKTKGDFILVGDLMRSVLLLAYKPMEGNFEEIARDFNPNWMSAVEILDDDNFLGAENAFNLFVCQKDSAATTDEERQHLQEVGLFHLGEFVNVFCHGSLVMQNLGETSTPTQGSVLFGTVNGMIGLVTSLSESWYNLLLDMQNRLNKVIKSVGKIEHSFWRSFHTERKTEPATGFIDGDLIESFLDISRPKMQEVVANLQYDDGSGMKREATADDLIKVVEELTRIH

A NanoBRET fold increase [1] of 2 to 3 fold, a NanoBRET fold increase [2] of 2 to 3 fold and an EC50 [3] of under 0.25 µM were found for “HaloTag_CDK12 (N-terminal HaloTag, G4S linker, CDK12 (713-1052)) (from UniProt Q9NYV4 713-1052) (enzyme)” in this work. The EC50 [4] was under 0.25 µM, the NanoBRET fold increase [5] was 2 to 3 fold and the NanoBRET fold increase [6] was 3 to 4 fold. The NanoBRET fold increase [7] was 2 to 3 fold, the NanoBRET fold increase [8] was 3 to 4 fold and the EC50 [9] was under 0.25 µM. The NanoBRET fold increase [10] was over 4 fold, the NanoBRET fold increase [11] was 3 to 4 fold and the NanoBRET fold increase [12] was 2 to 3 fold. It also gave a NanoBRET fold increase [13] of over 4 fold, a NanoBRET fold increase [14] of 3 to 4 fold and a NanoBRET fold increase [15] of 3 to 4 fold. The NanoBRET fold increase [16] was 3 to 4 fold, the NanoBRET fold increase [17] was 2 to 3 fold and the NanoBRET fold increase [18] was 3 to 4 fold. It also gave a NanoBRET fold increase [19] of over 4 fold, a NanoBRET fold increase [20] of 2 to 3 fold and an EC50 [21] of under 0.25 µM. For the same substance, the EC50 [22] was under 0.25 µM, the NanoBRET fold increase [23] was 2 to 3 fold and the NanoBRET fold increase [24] was 3 to 4 fold. The NanoBRET fold increase [25] was over 4 fold and the NanoBRET fold increase [26] was 3 to 4 fold.
